Source: the supplement of paper PMC9170038

Tested on: MS2 coat protein
Test: apparent KD of MS2 coat protein; higher = weaker reporter binding
Settings: Eterna round: R107
Summary of the method: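 Titration buffer: 100 mM Tris-HCl pH 7.5, 80 mM KCl, 4 mM MgCl2, without or with constant ligand. Designed RNA switches transcribed on-chip from Illumina sequencing clusters received SNAP-549-labelled MS2 coat protein in twofold steps from 0.7 or 1.5 nM to 3 µM. Apparent KD is the median per design of fits to normalised cluster binding curves.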

[1] = input ligand: theophylline 20 uM
[2] = input ligand: theophylline 2 mM
[3] = input ligand: tryptophan 2.4 mM

GACCCAUGAGUUGGAAAAGCUCAUGGGUCGCGAGGACCGGUACGGCCGCCACUCGGCUGUACAUGAGGAUCACCCAUGUCAGGGU [#1 Same State - Tryptophan A Attempt #25 (HarryS)]
apparent KD of MS2 coat protein (input ligand: arginine 13.2 mM): 96.9 nM | apparent KD of MS2 coat protein (input ligand: none): 125 nM | apparent KD of MS2 coat protein [1]: 614 nM | apparent KD of MS2 coat protein [2]: 573 nM | apparent KD of MS2 coat protein [3]: 711 nM

CAAAUAAGAACAAACAAAUAACGGUUUUCGCGAGGACCGGUACGGCCGCCACUCGUGUGAAAUAACACAUGAGGAUCACCCAUGU [3'end-1]
apparent KD of MS2 coat protein (input ligand: arginine 13.2 mM): 31.8 nM | apparent KD of MS2 coat protein [1]: 44.6 nM | apparent KD of MS2 coat protein [2]: 47.9 nM

AUUAAUUGUCGUGAUACCAGACAUACAUGAGGAUCACCCAUGUUAAGUAACAUUUUUUAUGUCCCUUGGCAGCACUUUUUAAUUA [JR_Nu_SSTheophyB_Sub017]
apparent KD of MS2 coat protein (input ligand: arginine 13.2 mM): 22 nM | apparent KD of MS2 coat protein [1]: 24.8 nM | apparent KD of MS2 coat protein [3]: 19.7 nM

AUCUUUGAUGAUCUGGGAAAACCAGAUCGGCGAGGACCGGUACGGCCGCCACUCGUGUAUAAUAUACAUGAGGAUCACCCAUGUA [#20 Tryptophan A Same State]
apparent KD of MS2 coat protein (input ligand: arginine 13.2 mM): 50 nM | apparent KD of MS2 coat protein (input ligand: none): 55.4 nM | apparent KD of MS2 coat protein [1]: 99 nM | apparent KD of MS2 coat protein [2]: 91.6 nM | apparent KD of MS2 coat protein [3]: 25.1 nM

CGUAUUGUAACUGAUACCAGUGUACUGACAUGAGGAUCACCCAUGUUGGGUUUUGUUGUACACCCUUGGCAGCAGAAUCAAUACG [AstrosExyTheB#5]
apparent KD of MS2 coat protein (input ligand: arginine 13.2 mM): 59.4 nM | apparent KD of MS2 coat protein [1]: 74.2 nM | apparent KD of MS2 coat protein [3]: 65.8 nM

UCACAUGAGGAUCACCCAUGUACAGGCGAUACCAGCCGUACAUUGGGCCCUUGGCAGCGCACCGAGGACUUUUUAAGCAUCUCGG [Diatbeen]
apparent KD of MS2 coat protein (input ligand: arginine 13.2 mM): 26.2 nM | apparent KD of MS2 coat protein (input ligand: none): 19.8 nM | apparent KD of MS2 coat protein [1]: 401 nM | apparent KD of MS2 coat protein [2]: 282 nM | apparent KD of MS2 coat protein [3]: 23.8 nM

UGUGCAGGAUGUGUAAAAGGUCUUGGGCAUCGAGGACCGGUACGGCCGCCACUCGGCUGUACAUGAGGAUCACCCAUGUCAGGGU [#1 Same State - Tryptophan A Attempt #21 (HarryS)]
apparent KD of MS2 coat protein (input ligand: arginine 13.2 mM): 30.5 nM | apparent KD of MS2 coat protein (input ligand: none): 220 nM | apparent KD of MS2 coat protein [1]: 554 nM | apparent KD of MS2 coat protein [2]: 694 nM | apparent KD of MS2 coat protein [3]: 737 nM

GAGCUGAUGUAGAAAUUUUAUUUAUGAGAUACCAGUACAGAAAUGUACCCUUGGCAGCUCAUUUUUACAUGAGGAUCACCCAUGU [Ex Theophylline A 14]
apparent KD of MS2 coat protein (input ligand: arginine 13.2 mM): 13.5 nM | apparent KD of MS2 coat protein [1]: 12.8 nM | apparent KD of MS2 coat protein [3]: 13.3 nM

UGUAUGGACUGAAGGAGCGGGUUGAUAACCUGAGGAUCAUCCAGGUAAAAGGCGAAAGCCGCCCAGGUAGGUCGCAGUCCAUACU
apparent KD of MS2 coat protein (input ligand: arginine 13.2 mM): 174 nM | apparent KD of MS2 coat protein (input ligand: none): 158 nM | apparent KD of MS2 coat protein [1]: 227 nM | apparent KD of MS2 coat protein [2]: 280 nM | apparent KD of MS2 coat protein [3]: 237 nM

CGGCCCUCACCUGAGGAUCACCCGGGUGAUACCAGCCUGGAAACAGGCCCUUGGCAGCACCAGGUCAUCAAAGAUGACCAAGCCG [TheoAX 26 #OpenEnded #AlternativeMS2]
apparent KD of MS2 coat protein (input ligand: arginine 13.2 mM): 21.3 nM | apparent KD of MS2 coat protein (input ligand: none): 97.5 nM | apparent KD of MS2 coat protein [1]: 110 nM | apparent KD of MS2 coat protein [2]: 2630 nM | apparent KD of MS2 coat protein [3]: 105 nM

UUGCAGAUCGGAAAGGUCCUGCUGUUCGAAGGAGCGGUAAAAGUACCAGGUAGGUCGCGAACAUGAGGAUCACCCAUGUUUGCAA [Usmaenbi]
apparent KD of MS2 coat protein (input ligand: arginine 13.2 mM): 11.3 nM | apparent KD of MS2 coat protein (input ligand: none): 22.3 nM | apparent KD of MS2 coat protein [1]: 28.2 nM | apparent KD of MS2 coat protein [2]: 20.2 nM | apparent KD of MS2 coat protein [3]: 21.1 nM

AUUAAGGAUAUGUAGAAGGCGGAGAAGAGACGAGGACCGGUACGGCCGCCACUCGUGUUAGUUAACAUGAGGAUCACCCAUGUAA [#06 Tryptophan A Same State]
apparent KD of MS2 coat protein (input ligand: arginine 13.2 mM): 14.3 nM | apparent KD of MS2 coat protein (input ligand: none): 60.7 nM | apparent KD of MS2 coat protein [1]: 72.3 nM | apparent KD of MS2 coat protein [2]: 112 nM | apparent KD of MS2 coat protein [3]: 17.1 nM

GGAUAGGACACGGCCGCCACUAGCUAGGAUACUAGCAACAUUUCCUCGCUUGAGGAUCACCCAAGUAGGACCGGGUGUCCUAUCG
apparent KD of MS2 coat protein (input ligand: arginine 13.2 mM): 302 nM | apparent KD of MS2 coat protein (input ligand: none): 560 nM | apparent KD of MS2 coat protein [1]: 446 nM | apparent KD of MS2 coat protein [2]: 476 nM | apparent KD of MS2 coat protein [3]: 482 nM

GGCGCUGCGUCGGCCGCCACUAGCGGGUAAUGGGUGUACAUGAGGAUCACCCAUGUAAUAUGGCCUAGGACCGGGACGUGGCGCC [Moose]
apparent KD of MS2 coat protein (input ligand: arginine 13.2 mM): 259 nM | apparent KD of MS2 coat protein (input ligand: none): 427 nM | apparent KD of MS2 coat protein [1]: 415 nM | apparent KD of MS2 coat protein [2]: 465 nM | apparent KD of MS2 coat protein [3]: 620 nM
